Paper PMC12805100 (2025)

B1: 3xFLAG-WT hTRPA1 [human] / CaM-agarose resin (calmodulin coupled to agarose) [not stated] (parent complex)
chain 1: MKRSLRKMWRPGEKKEPQGVVYEDVPDDTEDFKESLKVVFEGSAYGLQNFNKQKKLKRCDDMDTFFLHYAAAEGQIELMEKITRDSSLEVLHEMDDYGNTPLHCAVEKNQIESVKFLLSRGANPNLRNFNMMAPLHIAVQGMNNEVMKVLLEHRTIDVNLEGENGNTAVIIACTTNNSEALQILLKKGAKPCKSNKWGCFPIHQAAFSGSKECMEIILRFGEEHGYSRQLHINFMNNGKATPLHLAVQNGDLEMIKMCLDNGAQIDPVEKGRCTAIHFAATQGATEIVKLMISSYSGSVDIVNTTDGCHETMLHRASLFDHHELADYLISVGADINKIDSEGRSPLILATASASWNIVNLLLSKGAQVDIKDNFGRNFLHLTVQQPYGLKNLRPEFMQMQQIKELVMDEDNDGCTPLHYACRQGGPGSVNNLLGFNVSIHSKSKDKKSPLHFAASYGRINTCQRLLQDISDTRLLNEGDLHGMTPLHLAAKNGHDKVVQLLLKKGALFLSDHNGWTALHHASMGGYTQTMKVILDTNLKCTDRLDEDGNTALHFAAREGHAKAVALLLSHNADIVLNKQQASFLHLALHNKRKEVVLTIIRSKRWDECLKIFSHNSPGNKCPITEMIEYLPECMKVLLDFCMLHSTEDKSCRDYYIEYNFKYLQCPLEFTKKTPTQDVIYEPLTALNAMVQNNRIELLNHPVCKEYLLMKWLAYGFRAHMMNLGSYCLGLIPMTILVVNIKPGMAFNSTGIINETSDHSEILDTTNSYLIKTCMILVFLSSIFGYCKEAGQIFQQKRNYFMDISNVLEWIIYTTGIIFVLPLFVEIPAHLQWQCGAIAVYFYWMNFLLYLQRFENCGIFIVMLEVILKTLLRSTVVFIFLLLAFGLSFYILLNLQDPFSSPLLSIIQTFSMMLGDINYRESFLEPYLRNELAHPVLSFAQLVSFTIFVPIVLMNLLIGLAVGDIAEVQKHASLKRIAMQVELHTSLEKKLPLWFLRKVDQKSTIVYPNKPRSGGMLFHIFCFLFCTGEIRQEIPNADKSLEMEILKQKYRLKDLTFLLEKQHELIKLIIQKMEIISETEDDDSHCSFQDRFKKEQMEQRNSRWNTVLRAVKAKTHHLEP
chain 2: not shown

Variants of: B1
Experiment: CaM-agarose pulldown, quantified immunoblot; 2 mM Ca2+; lysates of HEK293T cells; n = 3; read off a plot

Variant	response
chain 1 W1103A	~0.36 normalized pulldown (relative to WT hTRPA1 0.1 μM Ca2+ average)
chain 1 K989S, chain 1 R996S, chain 1 K997S, chain 1 K1001S, chain 1 W1103A	~0.05 normalized pulldown (relative to WT hTRPA1 0.1 μM Ca2+ average)
